Consider one molecule from patent US20190276541A1 (Seagen, published 2019).

This test concerns the target T1, CD3 on human T cells (human, UniProt P07766 23-207).
T1 construct: whole, on cells; The native CD3 complex on primary T cells, which were gated with anti-CD2-FITC; also called T cell receptor CD3; CD3 complex
In words: flow cytometry on human T cells in PBMCs, anti-Fc Alexa 647 secondary.

T1 sequence (P07766 23-207): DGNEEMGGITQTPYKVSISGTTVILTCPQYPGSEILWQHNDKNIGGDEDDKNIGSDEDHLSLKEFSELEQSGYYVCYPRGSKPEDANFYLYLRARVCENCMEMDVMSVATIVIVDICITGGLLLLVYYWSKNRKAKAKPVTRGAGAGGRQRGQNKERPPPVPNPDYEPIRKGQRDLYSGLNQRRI
Method: T cells are used to assess binding of antibodies to CD3. For T cell binding assay, PBMCs are isolated from 100 ml of human blood sample using the protocol described previously. […] 50 μl of cells are added to each well of an assay plate. […] Equal volumes of PBMCs and bispecific antibody dilutions are mixed to produce a binding curve. Anti-CD2-FITC (BD Biosciences, San Jose, Calif.) is added to each well to selectively stain T cells. The plate is incubated for 1 hour at 4° C. Cells are washed and pelleted three times with FACS buffer consisting of PBS, 5% FBS and 0.05% sodium azide. […] Cells are washed and pelleted three times again with FACS buffer. Cells are then resuspended in 200 μL FACS buffer and analyzed on a BD ACCURI™ C6 flow cytometer (BD Biosciences, San Jose, Calif.).

B1: 2G12-2B2 having VL0 and VH3 variable domains (antibody, V domains shown)
VH: EVQLVQSGAEVKKPGASVKVSCKASGYTFTDHAIHWVRQAPGQGLEWMGYFSPGNDDIKYNEKFRGRVTMTADKSSSTAYMELRSLRSDDTAVYFCKRSLSTPYWGQGTLVTVSS
VL: DIVMTQSPDSLAVSLGERATINCKSSQSLLNRGNHKNYLTWYQQKPGQPPKLLIYWASTRESGVPDRFSGSGSGTDFTLTISSLQAEDVAVYYCQNDYTYPYTFGQGTKVEIK
notes: also called 2G12-2B2 control; 2G12-2B2 comprising VL0 and VH3
With B1, the binding result was “no binding (tested: 0 to 10 µg per 500,000 cells)”.
